{"source": "paper PMC3869717", "about": "“The PCNA Interaction Protein Box Sequence in Rad54 Is an Integral Part of Its ATPase Domain and Is Required for Efficient DNA Repair and Recombination”", "key": {"Rad54": {"biological_target": "T1, Rad54 (Saccharomyces cerevisiae, UniProt P32863 1-898)", "T1 sequence": "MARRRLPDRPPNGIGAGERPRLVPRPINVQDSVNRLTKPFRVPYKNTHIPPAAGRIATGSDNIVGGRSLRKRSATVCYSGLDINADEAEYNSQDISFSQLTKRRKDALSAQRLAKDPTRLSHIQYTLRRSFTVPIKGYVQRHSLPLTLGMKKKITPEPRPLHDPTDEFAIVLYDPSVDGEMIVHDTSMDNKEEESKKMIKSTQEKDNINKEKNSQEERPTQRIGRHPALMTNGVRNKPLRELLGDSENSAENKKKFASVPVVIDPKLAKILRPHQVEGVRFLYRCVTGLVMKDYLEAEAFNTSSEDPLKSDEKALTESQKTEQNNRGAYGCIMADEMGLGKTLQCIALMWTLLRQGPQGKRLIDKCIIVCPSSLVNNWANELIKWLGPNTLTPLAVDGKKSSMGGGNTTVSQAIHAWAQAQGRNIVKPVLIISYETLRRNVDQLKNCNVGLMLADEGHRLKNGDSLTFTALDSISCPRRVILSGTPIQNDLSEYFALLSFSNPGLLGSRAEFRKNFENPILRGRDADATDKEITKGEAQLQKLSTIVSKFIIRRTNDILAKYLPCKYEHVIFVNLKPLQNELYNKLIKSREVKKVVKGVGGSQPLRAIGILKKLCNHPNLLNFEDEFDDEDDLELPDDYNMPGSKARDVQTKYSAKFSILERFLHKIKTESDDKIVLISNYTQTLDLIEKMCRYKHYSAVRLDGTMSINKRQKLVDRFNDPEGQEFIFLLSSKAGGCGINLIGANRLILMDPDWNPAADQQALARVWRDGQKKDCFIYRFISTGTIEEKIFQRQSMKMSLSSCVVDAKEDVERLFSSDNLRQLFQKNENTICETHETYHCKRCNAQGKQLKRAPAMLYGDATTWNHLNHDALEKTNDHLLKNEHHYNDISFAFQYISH", "assay": "EMSA (native PAGE); no ATP; Buffer D: 40 mM Tris-HCl pH 7.8, 50 mM KCl, 1 mM DTT, 100 µg/ml BSA, 30 °C, 10 min; plasmid 30 µM nucleotides with 31.25-1000 nM protein; 49-mer 3 nM with 12.5-200 nM protein", "conditions": "protein: recombinant; blunt"}, "Rad54-AA": {"biological_target": "T2, Rad54-AA (Saccharomyces cerevisiae, UniProt P32863 1-898, Y494A;F495A)", "T2 sequence": "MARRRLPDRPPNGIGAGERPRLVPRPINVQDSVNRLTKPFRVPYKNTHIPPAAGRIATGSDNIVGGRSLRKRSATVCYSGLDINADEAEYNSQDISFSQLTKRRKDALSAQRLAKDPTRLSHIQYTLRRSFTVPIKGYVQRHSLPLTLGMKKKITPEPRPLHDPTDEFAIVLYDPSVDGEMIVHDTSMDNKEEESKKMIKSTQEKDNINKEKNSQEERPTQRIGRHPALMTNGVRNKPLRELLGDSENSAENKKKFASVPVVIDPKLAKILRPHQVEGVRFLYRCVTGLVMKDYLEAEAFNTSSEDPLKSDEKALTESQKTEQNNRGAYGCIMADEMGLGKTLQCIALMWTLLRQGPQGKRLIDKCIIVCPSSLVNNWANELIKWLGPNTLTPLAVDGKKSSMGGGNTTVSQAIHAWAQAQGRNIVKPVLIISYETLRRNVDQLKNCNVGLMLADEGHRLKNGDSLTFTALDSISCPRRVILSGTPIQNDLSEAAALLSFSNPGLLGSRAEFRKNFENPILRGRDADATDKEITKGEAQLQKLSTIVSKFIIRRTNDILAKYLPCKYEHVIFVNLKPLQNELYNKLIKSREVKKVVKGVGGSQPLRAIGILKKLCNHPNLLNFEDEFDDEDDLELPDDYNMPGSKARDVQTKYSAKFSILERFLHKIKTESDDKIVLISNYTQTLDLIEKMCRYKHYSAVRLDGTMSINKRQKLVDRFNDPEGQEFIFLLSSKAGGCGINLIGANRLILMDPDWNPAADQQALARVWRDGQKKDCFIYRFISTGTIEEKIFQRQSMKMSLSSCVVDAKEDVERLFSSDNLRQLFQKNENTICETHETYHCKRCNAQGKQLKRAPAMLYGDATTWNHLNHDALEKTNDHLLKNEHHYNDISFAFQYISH", "assay": "EMSA (native PAGE); no ATP; equal to wild type; Buffer D: 40 mM Tris-HCl pH 7.8, 50 mM KCl, 1 mM DTT, 100 µg/ml BSA, 30 °C, 10 min; plasmid 30 µM nucleotides with 31.25-1000 nM protein; 49-mer 3 nM with 12.5-200 nM protein", "conditions": "protein: recombinant; blunt"}}, "data": [{"binder": "dsDNA 49-mer (dsDNA) DNA 1: AGCTACCATGCCTGCACGAATTAAGCAATTCGTAATCATGGTCATAGCT DNA 2: AGCTATGACCATGATTACGAATTGCTTAATTCGTGCAGGCATGGTAGCT", "values": [{"measurement": "binding result", "setting": "Rad54", "result": "binds"}, {"measurement": "binding result", "setting": "Rad54-AA", "result": "binds"}]}]}
